The labels stand for the following.
T1: soluble human FcγRIIb (human, UniProt P31994 43-217, limits assumed)
T1 construct: soluble His-tagged form; also called hFcγRIIb
T1 sequence (looked up): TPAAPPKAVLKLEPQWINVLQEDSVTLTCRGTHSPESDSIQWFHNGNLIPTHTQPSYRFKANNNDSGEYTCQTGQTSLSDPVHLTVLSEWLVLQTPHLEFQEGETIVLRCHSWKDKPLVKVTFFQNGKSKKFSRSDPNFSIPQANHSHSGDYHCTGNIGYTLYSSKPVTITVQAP

B1: Ab1H-P600/Ab1L (antibody, human IgG1, kappa, name in EU numbering)
heavy: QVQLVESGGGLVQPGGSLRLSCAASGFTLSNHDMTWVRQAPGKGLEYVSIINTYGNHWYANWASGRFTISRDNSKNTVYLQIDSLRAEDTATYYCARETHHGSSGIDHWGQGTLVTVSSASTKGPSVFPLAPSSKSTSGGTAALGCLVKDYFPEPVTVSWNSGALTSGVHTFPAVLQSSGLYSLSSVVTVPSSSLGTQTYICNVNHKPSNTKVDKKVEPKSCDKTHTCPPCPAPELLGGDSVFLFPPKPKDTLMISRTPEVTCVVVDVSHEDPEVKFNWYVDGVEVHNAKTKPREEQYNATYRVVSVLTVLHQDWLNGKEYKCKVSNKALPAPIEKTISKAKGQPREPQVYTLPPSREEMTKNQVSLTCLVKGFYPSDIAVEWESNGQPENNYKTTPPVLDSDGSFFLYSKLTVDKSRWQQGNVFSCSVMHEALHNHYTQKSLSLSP
light: DIQMTQSPSSVSASVGDRVTITCQASESIYSGLAWYQQKPGQPPKLLIYDHSTLASGVPSRFSGSGSGTEYALTISSLQPEDFATYYCQHADYAHHSDNVFGGGTKVEIKRTVAAPSVFIFPPSDEQLKSGTASVVCLLNNFYPREAKVQWKVDNALQSGNSQESVTEQDSKDSTYSLSSTLTLSKADYEKHKVYACEVTHQGLSSPVTKSFNRGEC
notes: copies: 2 + 2
B2: Ab1H-P921/Ab1L (antibody, human IgG1, kappa, name in EU numbering)
heavy: QVQLVESGGGLVQPGGSLRLSCAASGFTLSNHDMTWVRQAPGKGLEYVSIINTYGNHWYANWASGRFTISRDNSKNTVYLQIDSLRAEDTATYYCARETHHGSSGIDHWGQGTLVTVSSASTKGPSVFPLAPSSKSTSGGTAALGCLVKDYFPEPVTVSWNSGALTSGVHTFPAVLQSSGLYSLSSVVTVPSSSLGTQTYICNVNHKPSNTKVDKKVEPKSCDKTHTCPPCPAPELLGGDSVFLFPPKPKDTLMISRTPEVTCVVVDVSHEDPEVKFNWYVDGVEVHNAKTKPREEQYNATYRVVSVLTVLHQDWLNGKEYKCKVSNKALPARIEKTISKAKGQPREPQVYTLPPSREEMTKNQVSLTCLVKGFYPSDIAVEWESNGQPENNYKTTPPVLDSDGSFFLYSKLTVDKSRWQQGNVFSCSVMHEALHNHYTQKSLSLSP
light: B1 light
notes: copies: 2 + 2
B3: Ab1H-P850/Ab1L (antibody, human IgG1, kappa, name in EU numbering)
heavy: B2 heavy with R333P, Q421K
light: B1 light
notes: copies: 2 + 2
B4: Ab1H-P920/Ab1L (antibody, human IgG1, kappa, name in EU numbering)
heavy: B2 heavy with A332R, R333P
light: B1 light
notes: copies: 2 + 2
B5: Ab1H-P840/Ab1L (antibody, human IgG1, kappa, name in EU numbering)
heavy: B2 heavy with R333P, T361K
light: B1 light
notes: copies: 2 + 2
B6: Ab1H-P851/Ab1L (antibody, human IgG1, kappa, name in EU numbering)
heavy: B2 heavy with R333P, N423R
light: B1 light
notes: copies: 2 + 2
B7: Ab1H-P842/Ab1L (antibody, human IgG1, kappa, name in EU numbering)
heavy: B2 heavy with R333P, Q364K
light: B1 light
notes: copies: 2 + 2
B8: Ab1H-P912/Ab1L (antibody, human IgG1, kappa, name in EU numbering)
heavy: B2 heavy with T309R, R333P
light: B1 light
notes: copies: 2 + 2
B9: Ab1H-P854/Ab1L (antibody, name in EU numbering)
heavy: B2 heavy with R333P, L445R
light: B1 light
notes: copies: 2 + 2
B10: Ab1H-P849/Ab1L (antibody, human IgG1, kappa, name in EU numbering)
heavy: B2 heavy with R333P, Q420R
light: B1 light
notes: copies: 2 + 2
B11: Ab1H-P925/Ab1L (antibody, human IgG1, kappa, name in EU numbering)
heavy: B2 heavy with Y298R, R333P
light: B1 light
notes: copies: 2 + 2
B12: Ab1H-P828/Ab1L (antibody, human IgG1, kappa, name in EU numbering)
heavy: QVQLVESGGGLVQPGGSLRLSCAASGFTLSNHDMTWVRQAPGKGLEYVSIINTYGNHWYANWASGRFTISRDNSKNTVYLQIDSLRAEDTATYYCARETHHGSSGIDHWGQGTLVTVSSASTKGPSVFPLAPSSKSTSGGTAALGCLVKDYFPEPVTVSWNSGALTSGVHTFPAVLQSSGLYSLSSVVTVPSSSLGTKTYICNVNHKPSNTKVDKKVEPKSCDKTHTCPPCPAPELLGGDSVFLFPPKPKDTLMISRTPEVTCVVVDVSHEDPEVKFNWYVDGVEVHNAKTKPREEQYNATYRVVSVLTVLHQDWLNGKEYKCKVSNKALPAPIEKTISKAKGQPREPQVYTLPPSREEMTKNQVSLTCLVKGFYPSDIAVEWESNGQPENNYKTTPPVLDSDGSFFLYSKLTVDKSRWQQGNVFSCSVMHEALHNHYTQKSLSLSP
light: B1 light
notes: copies: 2 + 2
B13: Ab1H-P909/Ab1L (antibody, human IgG1, kappa, name in EU numbering)
heavy: B2 heavy with R333P, H437R
light: B1 light
notes: copies: 2 + 2
B14: Ab1H-P845/Ab1L (antibody, human IgG1, kappa, name in EU numbering)
heavy: B2 heavy with R333P, E384K
light: B1 light
notes: copies: 2 + 2
B15: Ab1H-P906/Ab1L (antibody, human IgG1, kappa, name in EU numbering)
heavy: B2 heavy with R333P, G387R
light: B1 light
notes: copies: 2 + 2
B16: Ab1H-P831/Ab1L (antibody, human IgG1, kappa, name in EU numbering)
heavy: B2 heavy with R333P, P389R
light: B1 light
notes: copies: 2 + 2
B17: Ab1H-P829/Ab1L (antibody, human IgG1, kappa, name in EU numbering)
heavy: B2 heavy with R333P, S339R
light: B1 light
notes: copies: 2 + 2
B18: Ab1H-P915/Ab1L (antibody, human IgG1, kappa, name in EU numbering)
heavy: B2 heavy with R333P, S402R
light: B1 light
notes: copies: 2 + 2
B19: Ab1H-P914/Ab1L (antibody, human IgG1, kappa, name in EU numbering)
heavy: B2 heavy with R333P, D401R
light: B1 light
notes: copies: 2 + 2
B20: Ab1H-P843/Ab1L (antibody, human IgG1, kappa, name in EU numbering)
heavy: B2 heavy with R333P, E382R
light: B1 light
notes: copies: 2 + 2
B21: Ab1H-P844/Ab1L (antibody, human IgG1, kappa, name in EU numbering)
heavy: B2 heavy with R333P, E384Q
light: B1 light
notes: copies: 2 + 2
B22: Ab1H-P852/Ab1L (antibody, human IgG1, kappa, name in EU numbering)
heavy: B2 heavy with R333P, S426K
light: B1 light
notes: copies: 2 + 2
B23: Ab1H-P841/Ab1L (antibody, human IgG1, kappa, name in EU numbering)
heavy: B2 heavy with R333P, N363R
light: B1 light
notes: copies: 2 + 2
B24: Ab1H-P910/Ab1L (antibody, human IgG1, kappa, name in EU numbering)
heavy: B2 heavy with L311R, R333P
light: B1 light
notes: copies: 2 + 2
B25: Ab1H-P846/Ab1L (antibody, human IgG1, kappa, name in EU numbering)
heavy: B2 heavy with R333P, Q388K
light: B1 light
notes: copies: 2 + 2
B26: Ab1H-P918/Ab1L (antibody, human IgG1, kappa, name in EU numbering)
heavy: B2 heavy with L330R, R333P
light: B1 light
notes: copies: 2 + 2
B27: Ab1H-P926/Ab1L (antibody, human IgG1, kappa, name in EU numbering)
heavy: B2 heavy with Q297R, R333P
light: B1 light
notes: copies: 2 + 2
B28: Ab1H-P848/Ab1L (antibody, human IgG1, kappa, name in EU numbering)
heavy: B2 heavy with R333P, S417R
light: B1 light
notes: copies: 2 + 2
B29: Ab1H-P837/Ab1L (antibody, human IgG1, kappa, name in EU numbering)
heavy: B2 heavy with R333P, E347R
light: B1 light
B30: Ab1H-P905/Ab1L (antibody, human IgG1, kappa, name in EU numbering)
heavy: B2 heavy with R333P, N386R
light: B1 light
notes: copies: 2 + 2
B31: Ab1H-P924/Ab1L (antibody, human IgG1, kappa, name in EU numbering)
heavy: B2 heavy with N317R, R333P
light: B1 light
notes: copies: 2 + 2
B32: Ab1H-P847/Ab1L (antibody, human IgG1, kappa, name in EU numbering)
heavy: B2 heavy with R333P, N391K
light: B1 light
notes: copies: 2 + 2
B33: Ab1H-P908/Ab1L (antibody, human IgG1, kappa, name in EU numbering)
heavy: B2 heavy with R333P, N436R
light: B1 light
notes: copies: 2 + 2
B34: Ab1H-P923/Ab1L (antibody, human IgG1, kappa, name in EU numbering)
heavy: B2 heavy with Q313R, R333P
light: B1 light
notes: copies: 2 + 2
B35: Ab1H-P917/Ab1L (antibody, human IgG1, kappa, name in EU numbering)
heavy: B2 heavy with A329R, R333P
light: B1 light
notes: copies: 2 + 2
B36: Ab1H-P919/Ab1L (antibody, human IgG1, kappa, name in EU numbering)
heavy: B2 heavy with P331R, R333P
light: B1 light
notes: copies: 2 + 2

Experimental findings from patent US20180258163A1 (Chugai, published 2018) are described below.

Where a chain is given by its changes, count along the chain named.

The assay deals with T1, soluble human FcγRIIb. Nature of the assay: SPR, Ab-IgE complex over captured hFcγRIIb, pH 7.4, 25C. How it is done: Fc region variant-containing antibody binding assays between soluble human FcγRIIb (a.k.a. “hFcγRIIb”) and antigen-antibody complexes were performed using BIACORE® T200 (GE Healthcare). Soluble hFcγRIIb was produced in the form of a His-tagged molecule using methods known in the art. An appropriate amount of an anti-His antibody was fixed onto Sensor chip CM5 (GE Healthcare) by the amine coupling method using a His capture kit (GE Healthcare) to capture hFcγRIIb. Next, an antibody-antigen complex and a running buffer (as a reference solution) was injected, and interaction was allowed to take place with the hFcγRIIb captured onto the sensor chip. 20 mM N-(2-Acetamido)-2-aminoethanesulfonic acid, 150 mM NaCl, 1.2 mM CaCl₂, and 0.05% (w/v) Tween 20 at pH 7.4 was used as the running buffer, and the respective buffer was also used to dilute the soluble hFcγRIIb. To regenerate the sensor chip, 10 mM glycine-HCl at pH 1.5 was used. All measurements were carried out at 25° C. Analyses were performed based on binding (RU) calculated from sensorgrains obtained by the measurements, and relative values when the binding amount of P600 was defined as 1.00 are shown. To calculate the parameters, the BIACORE® T100 Evaluation Software (GE Healthcare) was used.
For the molecule B1, the “relative binding (RU), P600=1.00” value is 1 fold. With B2, the “relative binding (RU), P600=1.00” value is -0.07 fold.

Take B3: the “relative binding (RU), P600=1.00” value was 2.22 fold.

On to B4, for which the “relative binding (RU), P600=1.00” value is 0.01 fold. The result for B5 reads 2.25 fold; that for B6, 1.43 fold.

Regarding B7, the “relative binding (RU), P600=1.00” value turned out to be 2.37 fold. As for B8, the “relative binding (RU), P600=1.00” value was 0.24 fold.

With B9, the “relative binding (RU), P600=1.00” value was 1.93 fold. Regarding B10, the “relative binding (RU), P600=1.00” value is 2.21 fold. The result for B11 reads -0.05 fold; that for B12, 1.27 fold. The result for B13 reads 0.73 fold; that for B14, 1.38 fold. The result for B15 reads 1.74 fold. On to B16, for which the “relative binding (RU), P600=1.00” value was 3.85 fold. The result for B17 reads 0.17 fold; that for B18, 0.85 fold; that for B19, 1.72 fold. Take B20: the “relative binding (RU), P600=1.00” value was -0.04 fold. With B21 the figure was 1.24 fold; with B22, 1.4 fold; with B23, 1.86 fold. The result for B24 reads 1.73 fold. With B25 the figure was 1.71 fold; with B26, -0.06 fold. In the case of B27, the “relative binding (RU), P600=1.00” value is -0.06 fold. The result for B28 reads 1.38 fold. Turning to B29, the “relative binding (RU), P600=1.00” value is 1.88 fold. Take B30: the “relative binding (RU), P600=1.00” value worked out at 1.34 fold. With B31 the figure was 2.08 fold; with B32, 1.57 fold. With B33 the figure was 0.42 fold.

In the case of B34, the “relative binding (RU), P600=1.00” value was 1.63 fold.

B35: the “relative binding (RU), P600=1.00” value was -0.05 fold. With B36 the figure was -0.06 fold.
